Measurements as given in the supplement of paper PMC9112550, “Optimization of the antimicrobial peptide Bac7 by deep mutational scanning” (BMC Biology, 2022).

tested on: Escherichia coli TOP10; test: shrunken log2 fold change of peptide-encoding DNA abundance (4.5 h post-induction vs induction); higher = less antimicrobial activity (less host growth inhibition); details: time post-induction: 4.5 h; library: site-saturation at positions 5, 18, 19, 20
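Also: peptides expressed intracellularly from a pBAD plasmid library in pooled LB shake-flask culture, induced with 0.3% L-arabinose, DNA abundance read by NGS, three biological replicates, DESeq2 with apeglm shrinkage.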

Sequence | shrunken log2 fold change
RRIRIRPPRLPRPRPRPAMWPRP | 0.13
RRIRYRPPRLPRPRPRPIITPRP | -0.667
RRIRMRPPRLPRPRPRPLMYPRP | -0.295
RRIRERPPRLPRPRPRPYQLPRP | -0.0108
RRIRSRPPRLPRPRPRPQNYPRP | -0.322
RRIRGRPPRLPRPRPRPCAHPRP | 0.251
RRIRNRPPRLPRPRPRPRDWPRP | 0.0384
RRIRFRPPRLPRPRPRPDVAPRP | 0.239
RRIRIRPPRLPRPRPRPHIHPRP | -0.811
RRIRVRPPRLPRPRPRPVMPPRP | -0.0577
RRIRKRPPRLPRPRPRPVYCPRP | -0.199
RRIRARPPRLPRPRPRPGWAPRP | 0.72
RRIRIRPPRLPRPRPRPKYLPRP | -0.437
RRIRMRPPRLPRPRPRPKDEPRP | 1.75
RRIRHRPPRLPRPRPRPTYSPRP | -0.489
RRIRKRPPRLPRPRPRPLEQPRP | 0.0352
RRIRDRPPRLPRPRPRPYNWPRP | -0.281
RRIRARPPRLPRPRPRPILIPRP | -0.374
RRIRNRPPRLPRPRPRPLQPPRP | -0.187
RRIRNRPPRLPRPRPRPVRMPRP | -0.132
RRIRHRPPRLPRPRPRPVKMPRP | -0.0874
RRIRERPPRLPRPRPRPWGPPRP | -0.0024

Sequence | shrunken log2 fold change
RRIRKRPPRLPRPRPRPTYVPRP | -0.201
RRIRYRPPRLPRPRPRPAEQPRP | 0.0374
RRIRPRPPRLPRPRPRPFDRPRP | 0.0133
RRIRCRPPRLPRPRPRPEHVPRP | 0.229
RRIRYRPPRLPRPRPRPDREPRP | -0.15
RRIRLRPPRLPRPRPRPSQPPRP | -0.0367
RRIRPRPPRLPRPRPRPYHAPRP | -0.19
RRIRWRPPRLPRPRPRPQAVPRP | 0.232
RRIRDRPPRLPRPRPRPGCQPRP | 0.341
RRIRTRPPRLPRPRPRPVRTPRP | 0.149
RRIRSRPPRLPRPRPRPYTYPRP | -0.0783
RRIRSRPPRLPRPRPRPKSTPRP | -0.556
RRIRCRPPRLPRPRPRPCGCPRP | -0.0301
RRIRQRPPRLPRPRPRPEHTPRP | -0.0628
RRIRMRPPRLPRPRPRPTGNPRP | 0.496
RRIRWRPPRLPRPRPRPKMYPRP | -0.13
RRIRIRPPRLPRPRPRPMHVPRP | -0.00468
RRIRRRPPRLPRPRPRPGPDPRP | 0.518
RRIRWRPPRLPRPRPRPCFWPRP | 0.213
RRIRMRPPRLPRPRPRPENQPRP | 1.86
RRIRVRPPRLPRPRPRPSYEPRP | -0.298
RRIRPRPPRLPRPRPRPVNCPRP | -0.118

Sequence | shrunken log2 fold change
RRIRSRPPRLPRPRPRPHLSPRP | -0.0791
RRIRIRPPRLPRPRPRPPYEPRP | -0.315
RRIRWRPPRLPRPRPRPYMWPRP | 0.00889
RRIRHRPPRLPRPRPRPAWQPRP | 0.0329
RRIRSRPPRLPRPRPRPIHPPRP | -0.0819
RRIRERPPRLPRPRPRPTMTPRP | -0.389
RRIRDRPPRLPRPRPRPVSKPRP | 0.0275
RRIRFRPPRLPRPRPRPRVQPRP | 0.263
RRIRCRPPRLPRPRPRPNRYPRP | -0.137
RRIRWRPPRLPRPRPRPFHYPRP | -2.18
RRIRWRPPRLPRPRPRPTVLPRP | 0.188
RRIRHRPPRLPRPRPRPHSVPRP | -0.0237
RRIRTRPPRLPRPRPRPKVGPRP | 0.2
RRIRYRPPRLPRPRPRPSDAPRP | -0.386
RRIRKRPPRLPRPRPRPKGVPRP | 0.286
RRIRWRPPRLPRPRPRPWGSPRP | 0.0134
RRIRERPPRLPRPRPRPDYWPRP | -0.276
RRIRLRPPRLPRPRPRPIREPRP | -0.27
RRIRIRPPRLPRPRPRPHMQPRP | -0.169
RRIRDRPPRLPRPRPRPSGQPRP | -0.0305
RRIRARPPRLPRPRPRPLEYPRP | -0.498
RRIRSRPPRLPRPRPRPYPVPRP | -0.0856

Sequence | shrunken log2 fold change
RRIRHRPPRLPRPRPRPPPKPRP | 0.906
RRIRYRPPRLPRPRPRPEWSPRP | -0.0724
RRIRQRPPRLPRPRPRPMELPRP | -0.109
RRIRERPPRLPRPRPRPCGMPRP | -0.398
RRIRQRPPRLPRPRPRPQNVPRP | -0.0161
RRIRFRPPRLPRPRPRPCPDPRP | -0.45
RRIRERPPRLPRPRPRPDENPRP | -0.0287
RRIRSRPPRLPRPRPRPHTHPRP | -0.419
RRIRKRPPRLPRPRPRPMVNPRP | 1.55
RRIRSRPPRLPRPRPRPDTDPRP | 0.0794
RRIRRRPPRLPRPRPRPRYWPRP | 0.088
RRIRKRPPRLPRPRPRPLEMPRP | 0.659
RRIRNRPPRLPRPRPRPIDDPRP | 0.00709
RRIRVRPPRLPRPRPRPIFCPRP | 0.078
RRIRIRPPRLPRPRPRPDPAPRP | 0.0747
RRIRGRPPRLPRPRPRPRIDPRP | 0.731
RRIRTRPPRLPRPRPRPNGPPRP | -0.277
RRIRRRPPRLPRPRPRPVRPPRP | 0.512
RRIRGRPPRLPRPRPRPCHTPRP | -0.0963
RRIRCRPPRLPRPRPRPCFTPRP | -0.552
RRIRGRPPRLPRPRPRPTTTPRP | 1.07
RRIRKRPPRLPRPRPRPQQNPRP | 0.157

Sequence | shrunken log2 fold change
RRIRSRPPRLPRPRPRPATSPRP | 0.0483
RRIRGRPPRLPRPRPRPGPPPRP | 0.97
RRIRVRPPRLPRPRPRPGITPRP | -0.238
RRIRVRPPRLPRPRPRPTTTPRP | 0.1
RRIRHRPPRLPRPRPRPRVWPRP | 0.534
RRIRTRPPRLPRPRPRPWGTPRP | -0.11
RRIRPRPPRLPRPRPRPAEEPRP | 0.2
RRIRDRPPRLPRPRPRPHALPRP | -0.225
RRIRTRPPRLPRPRPRPKRAPRP | 0.273
RRIRERPPRLPRPRPRPSKKPRP | -0.645
RRIRLRPPRLPRPRPRPMHSPRP | -0.13
RRIRYRPPRLPRPRPRPMDHPRP | -0.237
RRIRQRPPRLPRPRPRPFCCPRP | -0.114
RRIRPRPPRLPRPRPRPHHCPRP | -0.257
RRIRCRPPRLPRPRPRPPFIPRP | -0.154
RRIRQRPPRLPRPRPRPAMAPRP | -0.134
RRIRHRPPRLPRPRPRPHSAPRP | 0.0327
RRIRPRPPRLPRPRPRPVQAPRP | -0.013
RRIRSRPPRLPRPRPRPLDMPRP | 0.0557
RRIRQRPPRLPRPRPRPWYSPRP | -0.0193
RRIRGRPPRLPRPRPRPIDPPRP | -0.0473
